Source: patent publication US6635421 (CHILDREN S MEDICAL CENTER, dated 2003)

T1: Human NP-2 (neuropilin-2) (human, UniProt O60462 21-931)
T1 sequence: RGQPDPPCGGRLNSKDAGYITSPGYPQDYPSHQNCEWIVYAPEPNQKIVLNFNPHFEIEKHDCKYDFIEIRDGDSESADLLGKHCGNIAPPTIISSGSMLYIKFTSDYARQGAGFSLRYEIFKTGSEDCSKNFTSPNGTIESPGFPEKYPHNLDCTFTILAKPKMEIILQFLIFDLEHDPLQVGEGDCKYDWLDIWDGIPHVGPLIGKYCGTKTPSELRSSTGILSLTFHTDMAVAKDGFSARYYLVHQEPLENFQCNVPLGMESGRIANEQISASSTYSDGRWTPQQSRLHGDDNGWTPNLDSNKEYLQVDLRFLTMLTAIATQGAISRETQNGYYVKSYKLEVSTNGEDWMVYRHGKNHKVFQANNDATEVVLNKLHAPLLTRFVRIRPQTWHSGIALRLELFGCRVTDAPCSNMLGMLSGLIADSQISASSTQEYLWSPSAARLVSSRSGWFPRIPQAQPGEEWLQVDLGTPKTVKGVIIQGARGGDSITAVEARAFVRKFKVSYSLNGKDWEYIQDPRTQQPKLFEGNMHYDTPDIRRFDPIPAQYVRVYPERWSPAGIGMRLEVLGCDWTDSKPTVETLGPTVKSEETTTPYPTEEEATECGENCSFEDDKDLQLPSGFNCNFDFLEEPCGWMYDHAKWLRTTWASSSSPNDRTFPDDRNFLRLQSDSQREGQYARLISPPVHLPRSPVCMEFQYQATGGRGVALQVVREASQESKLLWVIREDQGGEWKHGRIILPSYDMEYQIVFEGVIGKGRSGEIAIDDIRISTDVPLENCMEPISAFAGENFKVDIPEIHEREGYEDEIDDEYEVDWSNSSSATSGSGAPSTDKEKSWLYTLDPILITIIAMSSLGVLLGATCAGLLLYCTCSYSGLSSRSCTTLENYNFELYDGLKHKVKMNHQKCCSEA

B1: Human recombinant VEGF121 (ligand, UniProt P15692-9 27-147, looked up)
chain: APMAEGGGQNHHEVVKFMDVYQRSYCHPIETLVDIFQEYPDEIEYIFKPSCVPLMRCGGCCNDEGLECVPTEESNITMQIMRIKPHQGQHIGEMSFLQHNKCECRPKKDRARQEKCDKPRR
modifications: radio-iodinated (125I, IODO-BEADS)
notes: mature
B2: Human recombinant VEGF165 (ligand, UniProt P15692-4 27-191, looked up)
chain: APMAEGGGQNHHEVVKFMDVYQRSYCHPIETLVDIFQEYPDEIEYIFKPSCVPLMRCGGCCNDEGLECVPTEESNITMQIMRIKPHQGQHIGEMSFLQHNKCECRPKKDRARQENPCGPCSERRKHLFVQDPQTCKCSCKNTDSRCKARQLELNERTCRCDKPRR
modifications: radio-iodinated (125I, IODO-BEADS) in the binding and cross-linking experiments; unlabelled when coupled to Sepharose or used as competitor
notes: mature

What was measured:
[1] = target: T2, Human VEGF165R/NP-1 (VEGF165 receptor / neuropilin-1) (human, UniProt O14786 22-923); test: cross-linking of 125I-VEGF121 to PAE/NP-1 cells, SDS-PAGE, autoradiography
T2 construct: 923 amino acid open reading frame; also called clone A2
Procedure: The binding was carried out in the presence of 1 μg/ml heparin. […] The cells were lysed and proteins were resolved by 6% SDS-PAGE. The polyacrylamide gel was dried and exposed to X-ray film.

[2] = target: T2, Human VEGF165R/NP-1 (VEGF165 receptor / …); test: cell-based or functional assay
[3] = target: T2, Human VEGF165R/NP-1 (VEGF165 receptor / …); test: Scatchard analysis (LIGAND program) of 125I-VEGF165 binding to PAE/NP-1 cells
[4] = target: T2, Human VEGF165R/NP-1 (VEGF165 receptor / …); test: Scatchard analysis of 125I-VEGF165 binding to independently generated PAE/NP-1 clones
[5] = target: T1, Human NP-2 (neuropilin-2); test: expression cloning: COS-7 cells transfected with single clones screened for 125I-VEGF165 binding (seven positive clones, one of them NP-2)
Procedure: The E. coli were sub-divided into 50 separate pools and plated onto 50 LB ampicillin dishes, with each pool representing approximately 100 clones. […] The seven positive plasmid clones were amplified and their DNA was analyzed by restriction enzyme digestion. […] One clone from each group was submitted for automated DNA sequencing.

| Binder | binding result [1] | 231 breast carcinoma cell motility (Boyden chamber motility assay) [2] | Kd [3] | Kd [4] | binding result [5] |
| --- | --- | --- | --- | --- | --- |
| B1 | no binding (tested: 10 ng/ml) | – | – | – | – |
| B2 | – | 2 fold | 320 pM | 300 pM | binds |
